Patent US20250243269A1 (ICAHN SCHOOL OF MEDICINE AT MOUNT SINAI, published 2025)

Molecular target: T1, human FSH (follicle stimulating hormone) (human, UniProt P01215 25-116; P01225 19-129)
T1 construct: also called purified human FSH; human FSH in PDB ID 4AY9
Assay: thermal shift assay (Sypro-Orange), antibody 1.5 µg/µL with or without human FSH 0.5 µg/µL
Procedure: Next, 215 different anti-FSH antibody formulations comprising different combinations of salt, detergent and sugars were tested for thermal stability. The thermal shift assay used a fluorescent reporter, Sypro-Orange (Protein Thermal Shift Dye Kit, ThermoFisher, Catalog #4461146), to detect hydrophobic domains that are exposed following the heat-induced unfolding of globular proteins. anti-FSH antibodies (1.5 μg/μL), either in a test formulation or in PBS, were incubated with or without human FSH (0.5 μg/μL) at room temperature for 30 minutes, with fluorescence captured sequentially at 0.3° C. increments using a StepOne Plus Thermocycler (Applied Biosystems). Tm was calculated based on the inflection point of the melt curve, and thermal shift was derived from ΔTₘ=TₘA−TₘB.
This testing yielded an anti-FSH antibody formulation comprising a stock solution of 2 mg/mL in 20 mM phosphate, 0.001% (v/v) Tween-20, 1 mM NaCl, and 260 mM sucrose (pH=6.58). […] The binding of formulated anti-FSH antibodies to purified human FSH was tested. A ΔTₘ of 3.1° C. of the Fab, and not the Fc region, established greater thermal stability due to FSH binding (FIG. 8C).

T1 sequence (P01215 25-116, chain 1 of 2): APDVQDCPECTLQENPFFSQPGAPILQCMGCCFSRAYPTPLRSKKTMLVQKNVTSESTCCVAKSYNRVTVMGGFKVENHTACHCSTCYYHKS
T1 sequence (P01225 19-129, chain 2 of 2): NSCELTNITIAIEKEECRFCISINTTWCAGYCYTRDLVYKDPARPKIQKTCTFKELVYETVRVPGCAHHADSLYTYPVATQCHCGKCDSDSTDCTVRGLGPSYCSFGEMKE

B1: humanized monoclonal anti-FSH antibody Hu6 (antibody, V domains shown)
VH: QVQLQESGPGLVKPSQTLSLTCTVSGFSITSDYAWNWIRQPPGKGLEWIGSIFSSGSINYNPSLKSRVTISRDTSKNQFSLKLSSVTAADTAVYYCARGGTGTDYWGQGTLVTVSS
VL: DIQMTQSPSSLSASVGDRVTITCRASQDISNYLSWYQQKPGKAIKLLIYYTSRLHSGVPSRFSGSGSGTDYTLTISSLQPEDFATYFCQQGHTLPPTFGGGTKVEIK
notes: also called MS-Hu6; formulated anti-FSH antibodies
ΔTm of the Fab region on FSH binding: 3.1 °C
